Read-out of the competitive receptor binding assay (unit not given) and IC50 data for three molecules are collected here from patent US20140094592A1.

The target in assay [1] is gonadotropin releasing hormone receptor. Nature of the assay: competition with I125-d-Lys6-GnRH on pituitary membranes; competitor at 29.09 nM.
For assay [2] the target is unchanged. Nature of the assay: competition with I125-d-Lys6-GnRH on pituitary membranes; competitor at 72.73 nM.
Assay [3] shares this target. Nature of the assay: competition with I125-d-Lys6-GnRH on pituitary membranes; competitor at 181.82 nM.
Assay [4] shares this target. The experiment in a line: competition with I125-d-Lys6-GnRH on pituitary membranes; competitor at 454.55 nM.
The target is the same in assay [5]. The experiment in a line: competition with I125-d-Lys6-GnRH on pituitary membranes; competitor at 1136.36 nM.
For assay [6] the target is unchanged. The experiment in a line: competition with I125-d-Lys6-GnRH on pituitary membranes; competitor at 28.24 nM.
Assay [7] shares this target. The experiment in a line: competition with I125-d-Lys6-GnRH on pituitary membranes; competitor at 70.59 nM.
The target is the same in assay [8]. The experiment in a line: competition with I125-d-Lys6-GnRH on pituitary membranes; competitor at 176.47 nM.
Assay [9] shares this target. The experiment in a line: competition with I125-d-Lys6-GnRH on pituitary membranes; competitor at 441.18 nM.
For assay [10] the target is unchanged. Nature of the assay: competition with I125-d-Lys6-GnRH on pituitary membranes; competitor at 1102.94 nM.
Assay [11] has the same target. Nature of the assay: competitive radio-immuno receptor binding assay, pituitary membranes, displacement of I125-d-Lys6-GnRH.
The target is the same in assay [12]. Nature of the assay: competition with I125-d-Lys6-GnRH on pituitary membranes; competitor at 32 nM.
Assay [13] has the same target. The experiment in a line: competition with I125-d-Lys6-GnRH on pituitary membranes; competitor at 80 nM.
The target is the same in assay [14]. The experiment in a line: competition with I125-d-Lys6-GnRH on pituitary membranes; competitor at 200 nM.
Assay [15] has the same target. Nature of the assay: competition with I125-d-Lys6-GnRH on pituitary membranes; competitor at 500 nM.
For assay [16] the target is unchanged. Nature of the assay: competition with I125-d-Lys6-GnRH on pituitary membranes; competitor at 1250 nM.

As to “non-conjugated recombinant PAP (not bound to d-lys6-GnRH-GMBS) (from UniProt P10297 23-285)”, the read-out of the competitive receptor binding assay (unit not given) in assay [1] came out at 91.5; in assay [2], 111; in assay [3], 96.4; in [4], 98.7; in assay [5], 74.8.

As a reminder, the IC50 is the concentration that inhibits the measured activity by half. High values mean weaker potency in that assay, low ones greater potency in that assay. Take “d-lys6-GnRH-GMBS-rPAP (from UniProt P10297 23-285)”: the read-out of the competitive receptor binding assay (unit not given) in assay [6] was 75; in [7], 78.2; in [8], 49.4; in [9], 34; in assay [10], 9.24. For the same molecule, the IC50 in [11] was 70 to 200 nM.

B1: d-lys6-GnRH-GMBS-plant-derived mature PAP (protein)
chain: VNTIIYNVGSTTISKYATFLNDLRNEAKDPSLKCYGIPMLPNTNTNPKYVLVELQGSNKKTITLMLRRNNLYVMGYSDPFETNKCRYHIFNDISGTERQDVETTLCPNANSRVSKNINFDSRYPTLESKAGVKSRSQVQLGIQILDSNIGKISGVMSFTEKTEAEFLLVAIQMVSEAARFKYIENQVKTNFNRAFNPNPKVLNLQETWGKISTAIHDAKNGVLPKPLELVDASGAKWIVLRVDEIKPDVALLNYVGGSCQTT
peptide: EHWSYKLRP
modifications: Hp-Glu at position 1 (blocked N-terminus); D-Lys at position 6, carrying the GMBS linker; C-terminal ethyl-amide (Et-NH2) replacing Gly 10; bound through the GMBS linker to d-lys6-GnRH; site of attachment not stated
Turning to B1, the read-out of the competitive receptor binding assay (unit not given) in assay [12] was determined as 65.5; in [13], 37.5; in assay [14], 10.1; in assay [15] it was 3.38; in [16], 0. The IC50 in assay [11] was 70 to 200 nM.
